Data published in patent publication US20080009025A1, “PROTEIN KINASE REGULATION” (priority 1999, published 2008).
Residue numbers refer to the chain shown, from its start.

Tests used:
PDK1 = target: T1, PDK1 (Homo sapiens, UniProt O15530); test: Glutathione-Sepharose pull-down of PDK1 with S6K1 or SGK1 from 293 cells; assay type: binding; conditions: GST-SGK1 forms; wild type Myc-PDK1
T1 construct: Full length PDK1 (residues 1-556); made in house; host or cells: 293 cells
T1 sequence (O15530 1-556): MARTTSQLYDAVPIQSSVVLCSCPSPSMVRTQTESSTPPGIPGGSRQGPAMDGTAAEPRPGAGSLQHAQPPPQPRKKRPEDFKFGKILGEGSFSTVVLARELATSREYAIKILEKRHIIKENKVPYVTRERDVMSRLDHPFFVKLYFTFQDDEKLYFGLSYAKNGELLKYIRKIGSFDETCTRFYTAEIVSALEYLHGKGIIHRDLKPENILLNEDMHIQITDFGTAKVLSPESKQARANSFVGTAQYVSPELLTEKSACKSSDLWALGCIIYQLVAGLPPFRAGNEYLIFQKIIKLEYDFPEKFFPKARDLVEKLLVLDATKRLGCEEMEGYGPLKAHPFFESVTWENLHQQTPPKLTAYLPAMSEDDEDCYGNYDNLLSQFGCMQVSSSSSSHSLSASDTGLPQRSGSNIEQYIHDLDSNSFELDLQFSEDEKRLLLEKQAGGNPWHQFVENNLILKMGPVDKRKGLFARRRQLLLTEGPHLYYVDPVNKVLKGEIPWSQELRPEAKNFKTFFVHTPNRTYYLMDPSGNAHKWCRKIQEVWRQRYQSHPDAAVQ
Experimental: FIG. 21. Interaction of S6K1 and SGK1 with PDK1. 293 cells were transiently transfected with DNA constructs expressing GST, GST-PDK1 wt or PDK1 L155E together with constructs expressing either wild type or the indicated mutants or truncations of HA tagged S6K1 (A) or wild type GST-ΔN-SGK1 or 422D mutant. 36 h post transfection the cells were lysed and GST fusion protein was purified by affinity chromatography on glutathione-Sepharose beads. Aliquots were electrophoresed on a 10% SDS-polyacrylamide gel, stained with Coomassie Blue, or immunoblotted using an anti-FLAG antibody to detect FLAG-S6K1 and anti-Myc antibody to detect Myc-PDK1. To establish that the wild type and mutant proteins were expressed at similar levels, […] of total lysate was electrophoresed on a 10% SDS-polyacrylamide gel and immunoblotted using the indicated antibodies. Duplicates of each condition are shown. Similar results were obtained in two different experiments.
Binding of PDK1 to SGK1 and S6K1. For the data presented in FIG. 22, 293 cells were cotransfected with 10 μg of the wild type or mutant PDK1 plasmid and 10 μg of either the wild type or mutant S6K1 or SGK1. […] The gels were either stained with Coomassie blue, or analysed by immunoblotting with either anti-Flag or anti-Myc antibodies (described below).

PDK1-wt = target: T2, PDK1-wt (Homo sapiens, UniProt O15530); test: Phosphorylation of AGC kinase substrates by PDK1 (32P, PhosphoImager); assay type: biochemical
T2 construct: made in house; host or cells: human embryonic kidney 293 cells
T2 sequence (O15530 1-556): T1 sequence (O15530 1-556)
Experimental: (§1) Phosphorylation of AGC kinase substrates by PDK1. The phosphorylation of PDK1 substrates was performed in a final volume of 20 μl in a buffer containing 50 mM Tris-HCl pH 7.5, 0.1% (by vol) 2-mercaptoethanol, 10 mM magnesium chloride, 100 μM [γ-^32P]ATP (˜1000 c.p.m./pmol), 0.5 μM microcystin-LR, 0.6 μM AGC kinase substrate and 0.6 to 30 nM wild type PDK1 or the indicated mutant of PDK1.
(§2) Relative phosphorylation of PDK1 substrates. PDK1 substrates were phosphorylated in vitro, subjected to SDS-PAGE, and radioactivity associated with the bands measured using a Phospho-Imager and known amounts of ATP as standard. The phosphorylation rate of PKB[S473D] in the presence of PtdIns (3,4,5)P3 was 2.6 mol/mol PDK1/min and was taken as the relative value of 100. Average values from a representative experiment performed in duplicates are shown.

PDK1-L155E = target: T3, PDK1-L155E (Homo sapiens, UniProt O15530, L155E); test: as above; assay type: biochemical; conditions: PKB[S473D] rate by PDK1-wt = 100
T3 construct: made in house; host or cells: human embryonic kidney 293 cells
T3 sequence (O15530 1-556 L155E): T1 sequence (O15530 1-556) with L155E
Experimental: as §1, §2

interaction with Myc-PDK1 (PDK1): did not interact | phosphorylated at a lower rate than SGK1[T422D] (PDK1-wt): 10 fold | Relative phosphorylation of PDK1 substrates PDK1-wt +PIFtide (PDK1-wt; with PIFtide, PKB[S473D] rate with PtdIns(3,4,5)P3 = 100): 3.8 | Relative phosphorylation of PDK1 substrates PDK1-wt — (PDK1-wt; without PIFtide, PKB[S473D] rate with PtdIns(3,4,5)P3 = 100): 8 | Relative phosphorylation of PDK1 substrates PDK1-L155E +PIFtide (PDK1-L155E; with PIFtide): 2.4 | Relative phosphorylation of PDK1 substrates PDK1-L155E — (PDK1-L155E; without PIFtide): 3.3
B1: DN-SGK: SGK1 lacking the N-terminal 60 amino acids (protein)
chain: SQPQEPELMNANPSPPPSPSQQINLGPSSNPHAKPSDFHFLKVIGKGSFGKVLLARHKAEEVFYAVKVLQKKAILKKKEEKHIMSERNVLLKNVKHPFLVGLHFSFQTADKLYFVLDYINGGELFYHLQRERCFLEPRARFYAAEIASALGYLHSLNIVYRDLKPENILLDSQGHIVLTDFGLCKENIEHNSTTSTFCGTPEYLAPEVLHKQPYDRTVDWWCLGAVLYEMLYGLPPFYSRNTAEMYDNILNKPLQLKPNITNSARHLLEGLLQKDRTKRLGAKDDFMEIKSHVFFSLINWDDLINKKITPPFNPNVSGPNDLRHFDPEFTEEPVPNSIGKSPDSVLVTASVKEAAEAFLGFSYAPPTDSFL
modifications: left off: a dimerising Fc or GST
notes: SGK1 lacking the N-terminal 60 amino acids
